# From the supplement of paper PMC9732359
# ± gives the uncertainty stated by the source.
# Assay: protein stability index of a GFP-peptide fusion (yeast GPS) (PSI 1-4); higher = more stable; sorted into four equal gates, so the index is relative within each strain
# Conditions: san1∆
# In short: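 Sequencing reads from sorted gates were used to score each peptide. The library consisted of tiled 17-residue yeast protein peptides fused downstream of GFP on a Cherry-expressing plasmid, pooled and carried in yeast. Mid-log cultures in leucine-free medium were split into four equal gates by GFP/Cherry ratio, and each gate's plasmids were PCR-amplified and Illumina-sequenced. The protein stability index adds up, over all gates, the read frequency multiplied by the gate number.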
row,Sequence,protein stability index
1,QGGAMNKKSEQALDISK [SRP72],3 ± 0.043
2,QGLAMVEKYAPDVVRSL [RRP42],2.3 ± 0.15
3,QGMEGTVDLALFGSPPF [YMR129W/POM152],3.35 ± 0.076
4,QHHVTDADKLSFNCENF [YML031W/NDC1],2.3 ± 0.058
5,QIANEFNTQQGIKKHSL [YDL116W/NUP84],3.18 ± 0.04
6,QIDYKLESFQAVYNKLT [RPS7A],2.41 ± 0.063
7,QIGQVPLAPAPINLPPQ [SNF5],2.4 ± 0.14
8,QIISNAHNKPSLFSKIK [YAR002W/NUP60],2.77 ± 0.071
9,QIKEIKEVIELPVKHPE [RPT6],3.27 ± 0.078
10,QILIFAADTSIVEQDKS [YJL039C/NUP192],2.45 ± 0.18
11,QIMQLKKICNHPFVFEE [SNF2],2.53 ± 0.063
12,QITIEPGVDVEVVVASN [RPS20],3.01 ± 0.098
13,QKKILSIRLKVPPTIAQ [RPL8A],1.5 ± 0.06
14,QKKNFLFKPLNKTLTLD [ARP7],2.08 ± 0.25
15,QKKRVVDPFTRKEWFDI [RPS1A],3.03 ± 0.08
16,QKLDILVAKLKKVKSAS [SMC4],2.61 ± 0.071
17,QKLHKVKKASGEIVSIN [RPL20A],3.07 ± 0.042
18,QKNYADPEKDSINATAL [SIN4],1.61 ± 0.087
19,QKSSKENIENEEYVINL [ECM29],2.75 ± 0.082
20,QKTVFDELCKLVTCEGS [SRP54],1.25 ± 0.18
21,QKVFVRSRNGGATKIVR [DIS3],2.88 ± 0.1
22,QLDSDANKLSKSHSTVS [ISW2],3 ± 0.13
23,QLEGFESRKAFFLGYMI [RPB2],1.41 ± 0.079
24,QLEYKRGEIREIEQVCK [MED7],2.2 ± 0.18
25,QLGPQTPAFNTAILQRQ [ECM29],1.41 ± 0.17
26,QLIKVAVHNGDRKHVAA [RPL9B],2.28 ± 0.061

row,Sequence,protein stability index
1,QLILSDVDPEFYLKYVD [RET1],2.72 ± 0.12
2,QLKFEGFALNSDIVFIH [BRR2],2.06 ± 0.065
3,QLKTGLAAIVSTVIEEF [YGL172W/NUP49],2.83 ± 0.1
4,QLKWAQNTIDDTEMKMK [YIL149C/MLP2],2.71 ± 0.059
5,QLNCIDTQFTKLLDDNP [SRB8],2.57 ± 0.065
6,QLNKVVDQLFEKASVLY [RPN6],2.62 ± 0.05
7,QLPSKFTCSCNSLTVDG [RPN14],2.17 ± 0.052
8,QLVEITEQIKMRILSND [SRB8],2.44 ± 0.043
9,QLYEDLCRYEDTLSKLV [MED4],2.75 ± 0.27
10,QMDGFDNLGQTKIIMAT [RPT4],3.66 ± 0.082
11,QMPLNSNGGNNMLPQRQ [SNF2],2.39 ± 0.064
12,QNCWSLINDSYINDVHL [SSN8],3.34 ± 0.054
13,QNDTPMFKLGNFESPVL [YLR018C/POM34],2.62 ± 0.05
14,QNKKNLKWVAVVPDLGH [SSN2],2.81 ± 0.07
15,QNNFHVLIDLLNWFRTT [RGR1],2.67 ± 0.053
16,QNNTTKFHSELQYLDKH [RPN12],2.39 ± 0.26
17,QNPKLFQTIFSKQDLIH [SIN4],2.02 ± 0.085
18,QNPLPTRFEVELEFIQS [SOH1],2.29 ± 0.084
19,QNVTSETHSKKRKKEAN [ITC1],2.94 ± 0.041
20,QPGYADLEHKEDCVEEF [QCR6],2.52 ± 0.074
21,QPKAPRAPKVIHGQDFQ [ISW2],2.94 ± 0.05
22,QPQETEEHHEEEPSRVD [RPT4],3.23 ± 0.074
23,QPSKVSSNVQQPQQQLG [RTT102],2.61 ± 0.082
24,QPTNFTTKRLWSEITES [MCD1],2.04 ± 0.089
25,QPYEDRPFEGLFVISTE [RRP45],3.11 ± 0.048
26,QQIWKSPNFKNYLKYLE [SOH1],1.61 ± 0.047

row,Sequence,protein stability index
1,QQLNKQRQDFERVRLRP [SNF6],2.75 ± 0.069
2,QQMIITRLKSLLKPFHV [SIR3],2 ± 0.073
3,QQMQPPNSSANNNPLQQ [GAL11],2.89 ± 0.041
4,QQQLRNQIQRQQQQQFR [SNF5],1.4 ± 0.21
5,QQQQMQQQQQQQQQQQN [SSN2],2.8 ± 0.18
6,QQQQQQQQGQIPQSQQV [SNF5],2.257 ± 0.02
7,QQVPPLPDELTLSYDDI [DLS1],2.69 ± 0.05
8,QQWGNDFYKRDPRIAPL [FAS2],1.87 ± 0.1
9,QRQDFERVRLRPEQLSN [SNF6],2.21 ± 0.064
10,QSEDLSHAVEFFMSERS [YML103C/NUP188],3.25 ± 0.066
11,QSKIDLTKKKNEEINKK [SEM1],2.87 ± 0.14
12,QSNYGIYSSDAQGDPNL [NUT1],2.51 ± 0.056
13,QSYFSQLKFEGFALNSD [BRR2],1.17 ± 0.094
14,QTATQLLERGRLRKRVT [SMC2],2.92 ± 0.064
15,QTEIKDIILGQNIKAPS [PRP8],2.58 ± 0.11
16,QTQAIAQQQQLSNYPQQ [YGR119C/NUP57],2.58 ± 0.048
17,QTRWGLPSGRQDGVLLV [FAS2],1.59 ± 0.24
18,QTVSNKEDAKATMENIQ [SRP54],2.91 ± 0.075
19,QVARTNLDGTKAVKLRK [ROX3],2.98 ± 0.051
20,QVGERIKQTFKNDLFVI [RPO21],2.56 ± 0.06
21,QVGLNFELSFTGAPPYY [YMR129W/POM152],1.58 ± 0.061
22,QVNQLQRILEVLGTPDQ [SSN3],1.34 ± 0.05
23,QVSNFAPQVYIITKNEN [GAL11],2.38 ± 0.26
24,QVVLGGTSKYLINGHRA [SMC2],2.97 ± 0.062
25,QWSATWIAMRREKRDRT [PRP8],2.76 ± 0.18
26,QYIRTLVSEARTLWPEF [SSN8],2.39 ± 0.06

row,Sequence,protein stability index
1,RAANQGALPPDLSLIVK [CYT1],3.03 ± 0.18
2,RAIPFRRFNSSIGRTAQ [RPL17A],2.89 ± 0.097
3,RAIRSEKYGKQVYDLLK [BRR2],2.94 ± 0.18
4,RANLRKYREGQVLFQGL [POP1],2.02 ± 0.088
5,RAPIYHSKFRSSSGNTW [YML031W/NDC1],3.15 ± 0.084
6,RARGPMQVLTRQPVEGR [RPB2],2.79 ± 0.11
7,RAVLTPLITRHCYPRQL [RRP46],2.36 ± 0.052
8,RCIGDSDNVSFEIQGVP [YMR129W/POM152],3.28 ± 0.059
9,RDDGKRELLVEGYGLRD [RPO31],2.72 ± 0.077
10,RDKVCKQINEARDEILP [PGD1],1.5 ± 0.16
11,RDLILTEYGRKYNVNIS [PRP8],3.14 ± 0.23
12,RDMIMKRNSDKVEYKIV [ITC1],1.85 ± 0.12
13,RDYLVDTLKLRENLHIL [RRP6],3.4 ± 0.069
14,REDIDDPLAKVNVLLQS [BRR2],3.19 ± 0.092
15,REEAIGFIRGSNKFAEV [SMC3],2.95 ± 0.094
16,REIHNEAESQLRAAQQQ [FAS2],2.86 ± 0.076
17,RELFVMAREHAPSIIFM [RPT6],1.4 ± 0.23
18,RELTKNILWRIADKTTY [SIR4],2.68 ± 0.11
19,RENALYDYYALQLLPLQ [SNF2],2.72 ± 0.056
20,RENLHILNEVFTNPSIV [RRP6],2.5 ± 0.058
21,RENVKSKDEPVSKAVES [SIR4],2.93 ± 0.19
22,REVENSVSLLNSDIANL [SMC1],2.99 ± 0.07
23,RFDAQTGSDREVQRILI [RPT3],3.43 ± 0.1
24,RFKMERAGVTHVLSRLS [RET1],1.2 ± 0.27
25,RFNAKVSMVKRAIDSLI [CDC53],2.17 ± 0.12

# Same assay, conditions: ubr1∆
row,Sequence,protein stability index
1,QGEEEELIALNLSEARL [RPB4],3.26 ± 0.095
